assay: yeast display, Sf9 membrane polyspecificity reagent, FACS + sequencing; frameworks hold sequencing errors
Summary of the method: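 Sorting gates, low and high (top ~1%), were placed on anti-HA fluorescence to track expression and on streptavidin fluorescence to track reagent binding. A clone's polyreactivity label is taken from the gate it came out of. The reagent was 10% biotinylated, detergent-solubilized Sf9 membrane, applied for 1 hour at 4 °C to galactose-induced yeast display cells.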

**Q.** For “QVQLVESGGGLVQAGGSLRLSCAASGFTFGYNAMGWYRQAPGKERELVAAISSSGGSTYYADSVKGRFTISRDNAKNTVYLQMNSLKPEDTAVYYCAKRTPRKWGQGTQVTVSS”, which “polyreactivity (PSR sort gate)” value is on record?
**A.** The value was “high polyreactivity”.

**Q.** For “QVQLVESGGGLVQAGGSLRLSCAASGFTFGYNAMGWYRQAPGKERELVAAITSGGSTNYADSVKGRFTISRDNAKNTVYLQMNSLKPEDTAVYYCAVDPVRGRDYSWMDYWGQGTQVTVSS”, which “polyreactivity (PSR sort gate)” value is on record?
**A.** Its value is “low polyreactivity”.

**Q.** Which “polyreactivity (PSR sort gate)” value does the source give for “QVQLVESGGGLVQAGGSLRLSCAASGFTFGYNDMGWYRQATGKVRELVAGIRSGDDTNYADSVKGRFTISRDNAKNTVYLQMNSLKPEDTAVYYCAVGYGDYLYYDYDYWGQGTQVTVSS” here?
**A.** Its value is “low polyreactivity”.

**Q.** Which “polyreactivity (PSR sort gate)” value does the source give for “QVQLVESGGGLVQAGGSLRLSCAASGFTFGYNTMGWYRQAPGNERELGAAISWRGGSTFYADSVKGRFTISRDNAKNTVYLQMNSLKPEDTAVYYCNVLRLDQRYPSLRDDWGQGTQVTVSS” here?
**A.** The value was “high polyreactivity”.

**Q.** Which “polyreactivity (PSR sort gate)” value does the source give for “QVQLVESGGGLVQAGGSLRLSCAASGFTFGYYAMGWYRQAPGKERELVAAINWSGVNTNYADSVKGRFTISRDNAKNTVYLQMNSLKPEDTAVYYCAADAGYDGYGYWGQGTQVTVSS” here?
**A.** Its value is “low polyreactivity”.

**Q.** Which “polyreactivity (PSR sort gate)” value does the source give for “QVQLVESGGGLVQAGGSLRLSCAASGFTFGYYAMGWYRQAPGKERELVAAISSSGGRTYYADSVKGRFTISRDNAKNTVYLQMNSMKPEDTAVYYCAAVYIRYPIQYSLLRYDYWGQGTQVTVSA” here?
**A.** The value was “high polyreactivity”.

**Q.** With “QVQLVESGGGLVQAGGSLRLSCAASGFTFGYYAMGWYRQAPGKERELVAAITFRGGRTYYADSVKGRFTISRDNAKNTVYLQMNSLKPEDTAVYYCAALSLVRYYHNANYYPYYYWGQGTQVTVSS” as the sequence, how does the “polyreactivity (PSR sort gate)” value read?
**A.** Its value is “high polyreactivity”.

**Q.** With “QVQLVESGGGLVQAGGSLRLSCAASGFTFGYYAMGWYRQAPGKERELVATITSSGASTYADSVKGRFTISRDNAKNTVYLQMNSLKPEDTAVYYCAADRLPSYWSWYGYDYWGQGTQVTVSS” as the sequence, how does the “polyreactivity (PSR sort gate)” value read?
**A.** The value was “high polyreactivity”.

**Q.** For “QVQLVESGGGLVQAGGSLRLSCAASGFTFGYYAMGWYRQAPGKEREVVAAIRGGGRTNYADSVKGRFTISRDNAKITVYLQMNSLKPEDTAVYYCNADRLRTLRGDDWGQGSQVTVSS”, which “polyreactivity (PSR sort gate)” value is on record?
**A.** The value was “low polyreactivity”.

**Q.** For “QVQLVESGGGLVQAGGSLRLSCAASGFTFGYYDMGWYRQAPGKERELVAAISSSDVSTYADSVKGRFTISRDNAKNTVYLQMNSLKPEDTAVYYCAADFWYSYYYWGQGTQVTVSS”, which “polyreactivity (PSR sort gate)” value is on record?
**A.** The value was “high polyreactivity”.

**Q.** For “QVQLVESGGGLVQAGGSLRLSCAASGFTFGYYGMGSYRQAPGKERELVAAISWSGGSTYYADSVKGRFTISRDNAKNTVYLQMNSLKPEDTAVYYCAASAGYASNYWGQGTQVTVSS”, which “polyreactivity (PSR sort gate)” value is on record?
**A.** Its value is “low polyreactivity”.

**Q.** Which “polyreactivity (PSR sort gate)” value does the source give for “QVQLVESGGGLVQAGGSLRLSCAASGFTFGYYTMGWYRQAPGKERELVAAISWSGGSTYYADSVKGRFTISRDNAKNTVYLQMNSLKPEDTAVYYCAAYRYGYDYWGQGTQVTVSS” here?
**A.** Its value is “high polyreactivity”.

**Q.** For “QVQLVESGGGLVQAGGSLRLSCAASGFTFHHYAMGWYRQAPGKERELVAAITRSGGTTYYADSVKGRFTISRDNAKNTVYLQMNRLKPEDTAVYYCAADTGAKRYYRYDYWGQGTQVTVSS”, which “polyreactivity (PSR sort gate)” value is on record?
**A.** Its value is “high polyreactivity”.

**Q.** For “QVQLVESGGGLVQAGGSLRLSCAASGFTFHKNAMGWYRQAPGKERELVAAITYRGGSTSYADSVKGRFTISRDNAKNTFYLQMNSLKPEDTAVYYCAAELRPYITYDGPRKKFYYWGQGTQVTVSS”, which “polyreactivity (PSR sort gate)” value is on record?
**A.** The value was “high polyreactivity”.

**Q.** With “QVQLVESGGGLVQAGGSLRLSCAASGFTFHKYAMGWYRQAPGKERELVAAISWSGDRTYYADSVKGRFTISRDNAKNTVYLQMNSLKPEDTAVYYCAAATRYSFYIKYDYWGQGTQVTVSS” as the sequence, how does the “polyreactivity (PSR sort gate)” value read?
**A.** The value was “high polyreactivity”.

**Q.** For “QVQLVESGGGLVQAGGSLRLSCAASGFTFHNNVMGWYRQAPGKEMELVATISKSGGSTYYADSVKGRFTISRDNAKNTVYLQMNSLKPEDTAVYYCARSYRDYGRYGYWGQGTQVTVSS”, which “polyreactivity (PSR sort gate)” value is on record?
**A.** Its value is “high polyreactivity”.

**Q.** With “QVQLVESGGGLVQAGGSLRLSCAASGFTFHYNAMGWYRQAPRKEREFVAAISGSGDRTYYADSVKGRFTISRDNAKNTVYLQMNSLKPEDTAVYYCATSVRQNYFYSYDYWGQGTQVTVSS” as the sequence, how does the “polyreactivity (PSR sort gate)” value read?
**A.** Its value is “high polyreactivity”.

**Q.** With “QVQLVESGGGLVQAGGSLRLSCAASGFTFHYYTMGWYRQAPGKERELVASINYSGGRTYYADSVKGRFTISRDNAKNTVYLQMNSLKPEDTAVYYCNARYKSTYYYWGLGTQVTVSS” as the sequence, how does the “polyreactivity (PSR sort gate)” value read?
**A.** Its value is “high polyreactivity”.

**Q.** With “QVQLVESGGGLVQAGGSLRLSCAASGFTFIRNAMGWYRQAPVKERELVAAISKSGGTTYYADSVKGRFTISRDNAKNTVYLQMNSLKPEDTAVYYCNKGIGRSDPDYRYYYWGQGTQVTVSS” as the sequence, how does the “polyreactivity (PSR sort gate)” value read?
**A.** Its value is “high polyreactivity”.

**Q.** Which “polyreactivity (PSR sort gate)” value does the source give for “QVQLVESGGGLVQAGGSLRLSCAASGFTFIRNGMGWYRQAPGKERELVAAINSRGGNTYYADSVKGRFTISRDNAKNTVYLQMNSLKPEDTAVYYCNRVVQRWSTQYGYWGQGTQVTVSS” here?
**A.** The value was “high polyreactivity”.

**Q.** Which “polyreactivity (PSR sort gate)” value does the source give for “QVQLVESGGGLVQAGGSLRLSCAASGFTFIRYAMGWYRQAPGKERELVASISNRGGRTYYADSVKGRFTISRDNAKNTVYLQMNSLKPEDTAVYYCAAGYSTYRAVWTDNNYWGQGTQVTVSS” here?
**A.** The value was “high polyreactivity”.

**Q.** For “QVQLVESGGGLVQAGGSLRLSCAASGFTFISNAMGWYRQAPGKERELVAAISSSGGRTYYADSVKGRFTISRDNAKNTVYLQMNRLKPEDTAVYYCNAVRSLLYSRKIEYDYWGQGTQVTVSS”, which “polyreactivity (PSR sort gate)” value is on record?
**A.** Its value is “low polyreactivity”.

Reference: the nanobody polyreactivity screen of Harvey et al. (2022)
